Patent US20260007756A1, “COMPOUND AND USE THEREOF” (COHERENT BIOPHARMA (SUZHOU) LIMITED, priority 2022, published 2026)
Converted amounts (≈) assume the structure as drawn. Where two headings read alike, the source gives them in different places. Each block holds one compound with its values, some of them ahead of it.

Experiments:
[1] = Solubility study in PBS; assay type: physicochemical; settings: aqueous buffer, thermodynamic from solid; PBS (pH 7.2 to 7.4); read-out: Solubility, concentration
Description: The mixture was vortexed for 2 min until the solid was dissolved. The solubility was calculated as: C=m/V, C: concentration, m: sample weight, V: PBS total volume.

[2] = Plasma stability study 2; assay type: in vitro ADME; settings: mouse plasma, 37° C.; for remaining at 0.5 h, 100 μg/mL / remaining at 1 h, 100 μg/mL / remaining at 2 h, 100 μg/mL / remaining at 4 h, 100 μg/mL / remaining at 6 h, 100 μg/mL: read-out: Residual rate of principal component
Description: • 1) The conjugate compounds were prepared into 1 mg/mL stock solutions with 0.1% TFA-acetonitrile water (1:1); • 2) 10 μL of 1 mg/mL compound stock solution was added into 90 μL of fresh plasma, and the mixture was well mixed by gentle shaking, and transferred to a thermostatic incubator at 37° C. for 0 h, 0.5 h, 1 h, 2 h, 4 h, 6 h, or 24 h of incubation; • 3) at the time points, samples were taken out and 300 μL of methanol solution (containing 10 ng/ml of terfenadine) was added for protein precipitation; • 4) the mixture was centrifuged (13 min, 4° C., 12000 rpm) and the supernatant was collected, and preserved in a −80° C. refrigerator; after collection, the samples were loaded for LC-MS analysis.

[3] = tested on: 22RV1; assay type: cell-based, human; settings: 22RV1, 72 h, CellTiter-Glo
From the text: (§1) Negative and blank controls were set.

[4] = tested on: MDA-MB-231; assay type: cell-based, human; settings: MDA-MB-231, 72 h, CellTiter-Glo
From the text: as §1

[5] = tested on: sulfatase; settings: PBS pH 7.4, 37° C.
Description: (§3) • 1) The compounds were formulated into 500 μg/mL stock solutions with PBS (pH 7.4); • 2) 60 μL of 500 μg/mL compound stock solution was added to 420 μL PBS (pH 7.4), before 60 μL of 0.2 U/mL plasmin (or 60 μL of 0.5 U/mL sulfatase) was added, and the mixture was well mixed by gentle shaking; • 3) The cleavage reaction system in step 2) was transferred to a thermostatic incubator at 37° C. for 0 h, 1 h, 2 h, 4 h, or 24 h of incubation. Samples were taken and loaded at various time points for LC-MS analysis.

[6] = tested on: C4-2; settings: C4-2, 72 h, CellTiter-Glo
Description: Cells were prepared in advance, trypsinized, collected, counted, diluted to 1.5×10^4 cells/mL in a complete cell culture medium, and plated in 96-well plates. The diluted cell suspension was added at 100 μL/well, and negative and blank control wells were set on each plate. The 96-well plates with the added cells were incubated overnight at 37° C. in a 5% CO2 incubator.
Samples were serially diluted with medium (serially 3-fold diluted from 10 μM) to 9 concentrations. The medium in the plates was discarded, and the drug solutions were added at 100 μL per well to a 96-well plate in triplicate. Negative and blank controls were set. The plates were incubated at 37° C. for 72 h in a 5% CO2 incubator.
The CellTiter-Glo buffer was thawed and warmed to room temperature, and the CellTiter-Glo substrate was warmed to room temperature. The CellTiter-Glo buffer was added to the flask containing CellTiter-Glo substrate to dissolve the substrate, thereby preparing a CellTiter-Glo working solution, which was then vortexed slowly to complete dissolution. The cell culture plates were equilibrated at room temperature for 30 min, before the CellTiter-Glo working solution was added at 50 μL/well (about half the volume of cell culture medium in each well). The plate was covered by aluminum foil to keep out of light. The culture plate was shaken on an orbital shaker for 2 min to induce cell lysis. The culture plate was left to stand at room temperature for 10 min to stabilize the luminescence signals. The luminescence signal was detected on a microplate reader (Molecular Devices SpectraMax iD5).
Four-parameter curves were fitted using GraphPad Prism 8.0.2 to give IC50 values.

[7] = tested on: sulfatase; test: in vitro; settings: isolated sulfatase, pH 7.4
Description: as §3

[8] = tested on: LNCaP; test: Expansion inhibition of tumor cells (Example 9, CellTiter-Glo); assay type: cell-based, human; settings: 72 h
From the text: (§2) Information on cell lines: LNCaP (human prostate cancer cell) and VCaP (human prostate cancer cell)
as §1

[9] = tested on: VCaP; test: as above; assay type: cell-based, human; settings: 72 h
From the text: as §2, §1

[10] = biological target: cathepsin B-human liver (Homo sapiens, UniProt P07858); settings: 37° C.
Description: • 1) The conjugate compounds were prepared into 500 μg/mL stock solutions with 0.1% TFA-acetonitrile water (1:1); • 2) 60 μL of 500 μg/mL compound stock solution was added to 536 μL of 50 mM NaOAc (containing 1 mM EDTA+10 mM Cys), before 4 μL of cathepsin B (CB enzyme) was added, and the mixture was well mixed by gentle shaking. • 3) The cleavage reaction system in step 2) was transferred to a thermostatic incubator at 37° C. for 0 h, 1 h, 2 h, 4 h, or 24 h of incubation. Samples were taken and loaded at various time points for LC-MS analysis.

Structure (SMILES): CC[C@@H]1C(=O)N(C)c2cnc(Nc3ccc(-c4cn([C@H]5CC[C@@H](N(CCOCCC#Cc6cccc7c6CN(C6CCC(=O)NC6=O)C7=O)C(=O)OC(Cc6cn(CCOCCOCCNC(=O)COCCOCCn7cc(C[C@H](NC(=O)[C@H](CCCCN)NC(=O)[C@H](CC(=O)O)NC(=O)[C@H](CC(=O)O)NC(=O)Cc8ccc(CNC(=O)NCCCC[C@H](NC(=O)N[C@@H](CCC(=O)O)C(=O)O)C(=O)O)cc8)C(=O)N[C@@H](CCCCNC(=O)CC[C@H](NC(=O)c8ccc(NCc9cnc%10[nH]c(N)nc(=O)c%10n9)cc8)C(=O)O)C(N)=O)nn7)nn6)c6ccc(OS(=O)(=O)O)c([N+](=O)[O-])c6)CC5)nn4)cc3OC)nc2N1C1CCCC1 (some centres unmarked) [CR202W1]
- solubility at 2 min [1]: 8100 µg/mL (≈ 2650 µM)
- CR20274 release rate (actual release/theoretical release) ([2]; 0 h): 0.68%
- Residual rate of principal component ([2]; 0 h): 105.30%
- CR20274 release rate (actual release/theoretical release) ([2]; 0.5 h): 0.63%
- remaining at 0.5 h, 100 μg/mL ([2]; 0.5 h): 89.4%
- CR20274 release rate (actual release/theoretical release) ([2]; 1 h): 0.83%
- remaining at 1 h, 100 μg/mL ([2]; 1 h): 103%
- CR20274 release rate (actual release/theoretical release) ([2]; 2 h): 0.80%
- remaining at 2 h, 100 μg/mL ([2]; 2 h): 105%
- CR20274 release rate (actual release/theoretical release) ([2]; 4 h): 0.96%
- remaining at 4 h, 100 μg/mL ([2]; 4 h): 108%
- CR20274 release rate (actual release/theoretical release) ([2]; 6 h): 0.88%
- remaining at 6 h, 100 μg/mL ([2]; 6 h): 84.8%
- CR20274 release rate (actual release/theoretical release) ([2]; 24 h): 2.82%
- Residual rate of principal component ([2]; 24 h): −2.67%
- IC50 [3]: 112 nM
- IC50 [4]: 120 nM
- CR20274 release rate of compounds after cleavage ([5]; 0 h): 0%
- Principal component residue of compounds after cleavage ([5]; 0 h): 97%
- CR20274 release rate of compounds after cleavage ([5]; 1 h): 9%
- CR20274 release rate of compounds after cleavage ([5]; 2 h): 15%
- CR20274 release rate of compounds after cleavage ([5]; 4 h): 27%
- CR20274 release rate of compounds after cleavage ([5]; 24 h): 56%
- IC50 [6]: 43.2 nM
- remaining at 1 h, 55.6 µg/mL [7]: 89%
- remaining at 2 h, 55.6 µg/mL [7]: 80%
- remaining at 4 h, 55.6 µg/mL [7]: 69%
- remaining at 24 h, 55.6 µg/mL [7]: 37%

- IC50 [8]: 418 nM
- IC50 [9]: 12.4 nM
Structure (SMILES): Cc1ncsc1-c1ccc([C@H](CC(=O)N2CCC(N3CCC(C#Cc4ccc(C(=O)NC5C(C)(C)C(Oc6ccc(C#N)c(Cl)c6)C5(C)C)cc4)CC3)CC2)NC(=O)[C@@H]2C[C@@H](O)CN2C(=O)[C@@H](NC(=O)C2(F)CC2)C(C)(C)C)cc1 (some centres unmarked) [CR202Z9, ARD-69]

- IC50 ([8]; Homo sapiens): 8.7 nM
- IC50 ([9]; Homo sapiens): 10.9 nM
Structure (SMILES): Cc1ncsc1-c1ccc(C(C)NC(=O)C2CC(O)CN2C(=O)C(NC(=O)COCCCOCCNC(=O)CC2N=C(c3ccc(Cl)cc3)c3c(sc(C)c3C)-n3c(C)nnc32)C(C)(C)C)cc1 (centres unmarked) [CR202ES, ARV-771]

Structure (SMILES): CC[C@@H]1C(=O)N(C)c2cnc(Nc3ccc(-c4cn([C@H]5CC[C@@H](N(CCOCCC#Cc6cccc7c6CN(C6CCC(=O)NC6=O)C7=O)C(=O)OCc6ccc(NC(=O)[C@H](CCCNC(N)=O)NC(=O)[C@@H](NC(=O)[C@H](CCC(=O)O)NC(=O)COCCOCCn7cc(C[C@H](NC(=O)[C@H](CCCCN)NC(=O)[C@H](CC(=O)O)NC(=O)[C@H](CC(=O)O)NC(=O)Cc8ccc(CNC(=O)NCCCC[C@H](NC(=O)N[C@@H](CCC(=O)O)C(=O)O)C(=O)O)cc8)C(=O)N[C@@H](CCCCNC(=O)CC[C@H](NC(=O)c8ccc(NCc9cnc%10[nH]c(N)nc(=O)c%10n9)cc8)C(=O)O)C(N)=O)nn7)C(C)C)cc6)CC5)nn4)cc3OC)nc2N1C1CCCC1 (some centres unmarked) [CR202V4]
- solubility at 2 min [1]: 8000 µg/mL (≈ 2580 µM)
- CR20274 release rate (actual release/theoretical release) ([2]; 0 h): −0.12%
- Residual rate of principal component ([2]; 0 h): 84.13%
- CR20274 release rate (actual release/theoretical release) ([2]; 0.5 h): 0.04%
- remaining at 0.5 h, 100 μg/mL ([2]; 0.5 h): 75.9%
- CR20274 release rate (actual release/theoretical release) ([2]; 1 h): 0.11%
- remaining at 1 h, 100 μg/mL ([2]; 1 h): 74.3%
- CR20274 release rate (actual release/theoretical release) ([2]; 2 h): 0.17%
- remaining at 2 h, 100 μg/mL ([2]; 2 h): 78.2%
- CR20274 release rate (actual release/theoretical release) ([2]; 4 h): 0.30%
- remaining at 4 h, 100 μg/mL ([2]; 4 h): 61.3%
- CR20274 release rate (actual release/theoretical release) ([2]; 6 h): 0.42%
- remaining at 6 h, 100 μg/mL ([2]; 6 h): 70.4%
- CR20274 release rate (actual release/theoretical release) ([2]; 24 h): 2.62%
- Residual rate of principal component ([2]; 24 h): 1.36%
- IC50 [3]: 222 nM
- IC50 [4]: 234 nM
- CR20274 release rate of compounds after cleavage ([10]; 0 h): 0%
- Principal component residue of compounds after cleavage ([10]; 0 h): 100.00%
- CR20274 release rate of compounds after cleavage ([10]; 1 h): 100%
- Principal component residue of compounds after cleavage ([10]; 1 h): 0.00%
- CR20274 release rate of compounds after cleavage ([10]; 2 h): 100%
- Principal component residue of compounds after cleavage ([10]; 2 h): 0.00%
- CR20274 release rate of compounds after cleavage ([10]; 4 h): 100%
- Principal component residue of compounds after cleavage ([10]; 4 h): 0.00%
- CR20274 release rate of compounds after cleavage ([10]; 24 h): 100%
- Principal component residue of compounds after cleavage ([10]; 24 h): 0.00%
- IC50 [6]: 84.7 nM

Structure (SMILES): Cc1ncsc1-c1ccc(CNC(=O)[C@@H]2C[C@@H](O)CN2C(=O)[C@@H](NC(=O)COCCCCOc2ccc(-c3ccc(N4C(=S)N(c5ccc(C#N)c(C(F)(F)F)c5)C(=O)C4(C)C)cc3)cc2)C(C)(C)C)cc1 [CR202Z5, ARCC-4]
- IC50 ([8]; Homo sapiens): 373 nM
- IC50 ([9]; Homo sapiens): 183 nM

Structure (SMILES): CC[C@@H]1C(=O)N(C)c2cnc(Nc3ccc(-c4cn([C@H]5CC[C@@H](N(CCOCCC#Cc6cccc7c6CN(C6CCC(=O)NC6=O)C7=O)C(=O)OCc6ccc(NC(=O)[C@H](CCCNC(N)=O)NC(=O)[C@@H](NC(=O)COCCOCCn7cc(C[C@H](NC(=O)[C@H](CCCCN)NC(=O)[C@H](CC(=O)O)NC(=O)[C@H](CC(=O)O)NC(=O)Cc8ccc(CNC(=O)NCCCC[C@H](NC(=O)N[C@@H](CCC(=O)O)C(=O)O)C(=O)O)cc8)C(=O)N[C@@H](CCCCNC(=O)CC[C@H](NC(=O)c8ccc(NCc9cnc%10[nH]c(N)nc(=O)c%10n9)cc8)C(=O)O)C(N)=O)nn7)C(C)C)cc6)CC5)nn4)cc3OC)nc2N1C1CCCC1 (some centres unmarked) [CR202V5]
- solubility [1]: 2800 µg/mL (≈ 941 µM)
- CR20274 release rate (actual release/theoretical release) ([2]; 0 h): 0.02%
- Residual rate of principal component ([2]; 0 h): 94.75%
- CR20274 release rate (actual release/theoretical release) ([2]; 0.5 h): 0.17%
- remaining at 0.5 h, 100 μg/mL ([2]; 0.5 h): 101%
- CR20274 release rate (actual release/theoretical release) ([2]; 1 h): 0.25%
- remaining at 1 h, 100 μg/mL ([2]; 1 h): 94.9%
- CR20274 release rate (actual release/theoretical release) ([2]; 2 h): 0.37%
- remaining at 2 h, 100 μg/mL ([2]; 2 h): 94.7%
- CR20274 release rate (actual release/theoretical release) ([2]; 4 h): 0.94%
- remaining at 4 h, 100 μg/mL ([2]; 4 h): 90.6%
- CR20274 release rate (actual release/theoretical release) ([2]; 6 h): 0.97%
- remaining at 6 h, 100 μg/mL ([2]; 6 h): 80.4%
- CR20274 release rate (actual release/theoretical release) ([2]; 24 h): 3.92%
- Residual rate of principal component ([2]; 24 h): −1.03%
- IC50 [3]: 779 nM
- IC50 [4]: 412 nM
- CR20274 release rate of compounds after cleavage ([10]; 0 h): 0%
- Principal component residue of compounds after cleavage ([10]; 0 h): 100.00%
- CR20274 release rate of compounds after cleavage ([10]; 1 h): 100%
- Principal component residue of compounds after cleavage ([10]; 1 h): 2.37%
- CR20274 release rate of compounds after cleavage ([10]; 2 h): 100%
- Principal component residue of compounds after cleavage ([10]; 2 h): 0%
- CR20274 release rate of compounds after cleavage ([10]; 4 h): 100%
- Principal component residue of compounds after cleavage ([10]; 4 h): 0%
- CR20274 release rate of compounds after cleavage ([10]; 24 h): 100%
- Principal component residue of compounds after cleavage ([10]; 24 h): 0%
- IC50 [6]: 144 nM

Structure (SMILES): Cc1ncsc1-c1ccc(CNC(=O)[C@@H]2C[C@@H](OC(=O)OCc3ccc(NC(=O)[C@H](CCCNC(N)=O)NC(=O)[C@@H](NC(=O)COCCOCCn4cc(C[C@H](NC(=O)[C@H](CCCCN)NC(=O)[C@H](CC(=O)O)NC(=O)[C@H](CC(=O)O)NC(=O)Cc5ccc(CNC(=O)NCCCC[C@H](NC(=O)N[C@@H](CCC(=O)O)C(=O)O)C(=O)O)cc5)C(=O)N[C@@H](CCCCNC(=O)CC[C@H](NC(=O)c5ccc(NCc6cnc7[nH]c(N)nc(=O)c7n6)cc5)C(=O)O)C(N)=O)nn4)C(C)C)cc3)CN2C(=O)[C@@H](NC(=O)CCCCCCCCCCNC(=O)c2cc3c(cc2CS(C)(=O)=O)-c2cn(C)c(=O)c4[nH]cc(c24)CN3c2ncc(F)cc2F)C(C)(C)C)cc1 [CR202W8]
- IC50 [8]: 5.3 nM
- IC50 [9]: 2.7 nM
